Laboratory results from US20160319321.
“And” between values parts separate entries of the source, which are not always exact repeats. Identical values can stand only once.

Assays:
[1] = biological target: T1, Lys(Dnp)-DWGDR-HGEGT-Lys(Abz)amide
T1 chain: KDWGDRHGEGTK

[2] = biological target: T2, DVKPGQPLYDEGDR-[Arg34]GLP-1(9-37)
T2 chain: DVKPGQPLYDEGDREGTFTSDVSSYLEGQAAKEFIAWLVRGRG

[3] = biological target: T3, Lys(Dnp)-VIGDRHAEGT-Lys(Abz)amide
T3 chain: KVIGDRHAEGTK

[4] = biological target: T4, Lys(Dnp)-DYGDR-HAEGT-Lys(Abz)amide
T4 chain: KDYGDRHAEGTK

[5] = biological target: T5, Lys(Dnp)-IYGDRHAEGT-Lys(Abz)amide
T5 chain: KIYGDRHAEGTK

[6] = biological target: T6, Lys(Dnp)-DDGDR-EGTFT-Lys(Abz)amide
T6 chain: KDDGDREGTFTK

[7] = biological target: T7, Lys(Dnp)-AEGDR-HAEGT-Lys(Abz)amide
T7 chain: XAEGDRHAEGTX

[8] = biological target: T8, DVKPGQELYDDDDK-[Arg34]GLP-1(9-37)
T8 chain: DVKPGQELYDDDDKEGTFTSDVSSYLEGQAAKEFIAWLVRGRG

[9] = biological target: T9, Lys(Dnp)-EAGDR-EGTFT-Lys(Abz)amide
T9 chain: KEAGDREGTFTK

[10] = biological target: T10, Lys(Dnp)-EQGDR-HGEGT-Lys(Abz)amide
T10 chain: KEQGDRHGEGTK

[11] = biological target: T11, DVKPGQPLEDEGDR-[Arg34]GLP-1(9-37)
T11 chain: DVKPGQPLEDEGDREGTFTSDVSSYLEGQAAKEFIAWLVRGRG

[12] = biological target: T12, Lys(Dnp)-DFGDR-HAEGT-Lys(Abz)amide
T12 chain: KDFGDRHAEGTK

[13] = biological target: T13, DVKEGQPLYDDDDK-[Arg34]GLP-1(9-37)
T13 chain: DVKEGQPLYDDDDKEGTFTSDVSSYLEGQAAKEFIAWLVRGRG

[14] = biological target: T14, Lys(Dnp)-DSGDR-HSQGT-Lys(Abz)amide
T14 chain: KDSGDRHSQGTK

[15] = biological target: T15, Lys(Dnp)-EYGDR-EGTFT-Lys(Abz)amide
T15 chain: KEYGDREGTFTK

[16] = biological target: T16, Lys(Dnp)-DEGDR-HGTFT-Lys(Abz)amide
T16 chain: KDEGDRHGTFTK

[17] = biological target: T17, DVKPGEPLYDDDDK-[Arg34]GLP-1(9-37)
T17 chain: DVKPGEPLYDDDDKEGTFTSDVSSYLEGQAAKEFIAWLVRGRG

[18] = biological target: T18, Lys(Dnp)-FEGDR-HAEGT-Lys(Abz)amide
T18 chain: KFEGDRHAEGTK

[19] = biological target: T19, Lys(Dnp)-DLGDR-HGTFT-Lys(Abz)amide
T19 chain: KDLGDRHGTFTK

[20] = biological target: T20, Lys(Dnp)-DDGDR-HSQGT-Lys(Abz)amide
T20 chain: KDDGDRHSQGTK

[21] = biological target: T21, Lys(Dnp)-DDGDR-HGEGT-Lys(Abz)amide
T21 chain: KDDGDRHGEGTK

[22] = biological target: T22, Lys(Dnp)-ELGDR-HAEGT-Lys(Abz)amide
T22 chain: KELGDRHAEGTK

[23] = biological target: T23, Lys(Dnp)-EAGDR-HGEGT-Lys(Abz)amide
T23 chain: KEAGDRHGEGTK

[24] = biological target: T24, Lys(Dnp)-DEGDR-HGEGT-Lys(Abz)amide
T24 chain: KDEGDRHGEGTK

[25] = biological target: T25, Lys(Dnp)-EHGDR-HGEGT-Lys(Abz)amide
T25 chain: KEHGDRHGEGTK

[26] = biological target: T26, Lys(Dnp)-MEGDR-HAEGT-Lys(Abz)amide
T26 chain: KMEGDRHAEGTK

[27] = biological target: T27, Lys(Dnp)-SSGDRHAEGT-Lys(Abz)amide
T27 chain: KSSGDRHAEGTK

[28] = biological target: T28, Lys(Dnp)-DYGDR-HGEGT-Lys(Abz)amide
T28 chain: KDYGDRHGEGTK

[29] = biological target: T29, Lys(Dnp)-DGGDR-HAEGT-Lys(Abz)amide
T29 chain: KDGGDRHAEGTK

[30] = biological target: T30, Lys(Dnp)-MDEGDR-HAEGT-Lys(Abz)amide
T30 chain: KMDEGDRHAEGTK

[31] = biological target: T31, Lys(Dnp)-DHGDR-EGTFT-Lys(Abz)amide
T31 chain: KDHGDREGTFTK

[32] = biological target: T32, Lys(Dnp)-EQGDR-EGTFT-Lys(Abz)amide
T32 chain: KEQGDREGTFTK

[33] = biological target: T33, Lys(Dnp)-ETGDR-HAEGT-Lys(Abz)amide
T33 chain: KETGDRHAEGTK

[34] = biological target: T34, Lys(Dnp)-DSGDR-QGTFT-Lys(Abz)amide
T34 chain: KDSGDRQGTFTK

[35] = biological target: T35, Lys(Dnp)-DQGDR-HGEGT-Lys(Abz)amide
T35 chain: KDQGDRHGEGTK

[36] = biological target: T36, Lys(Dnp)-ELGDR-HGEGT-Lys(Abz)amide
T36 chain: KELGDRHGEGTK

[37] = biological target: T37, Lys(Dnp)-DSGDR-HGEGT-Lys(Abz)amide
T37 chain: KDSGDRHGEGTK

[38] = biological target: T38, Lys(Dnp)-QDEGDR-HAEGT-Lys(Abz)amide
T38 chain: KQDEGDRHAEGTK

[39] = biological target: T39, Lys(Dnp)-DEGDR-EGTFT-Lys(Abz)amide
T39 chain: KDEGDREGTFTK

[40] = biological target: T40, Lys(Dnp)-EQGDR-HAEGT-Lys(Abz)amide
T40 chain: KEQGDRHAEGTK

[41] = biological target: T41, Lys(Dnp)-DEGDR-HAEGT-Lys(Abz)amide
T41 chain: KDEGDRHAEGTK

B1: bovine Enterokinase light chain variant (C112A, L134K, I135K) (protein)
chain: IVGGSDSREGAWPWVVALYFDDQQVCGASLVSRDWLVSAAHCVYGRNMEPSKWKAVLGLHMASNLTSPQIETRLIDQIVINPHYNKRRKNNDIAMMHLEMKVNYTDYIQPIALPEENQVFPPGRICSIAGWGAKKYQGSTADVLQEADVPLLSNEKCQQQMPEYNITENMVCAGYEAGGVDSCQGDSGGPLMCQENNRWLLAGVTSFGYQCALPNRPGVYARVPRFTEWIQSFLH
With B1 the Activity (%) [1] was 338%, the Activity (%) [2] was 707% and the Activity (%) [3] was 68%. The Activity (%) [4] was 505%, the Activity (%) [5] was 117% and the Activity (%) [6] was 428%. It also gave an Activity (%) [7] of 382%, an Activity (%) [8] of 168% and an Activity (%) [9] of 355%. For the same protein, the Activity (%) [10] was 432%, the Activity (%) [11] was 653% and the Activity (%) [12] was 550%. For the same protein, the Activity (%) [13] was 178%, the Activity (%) [14] was 200% and the Activity (%) [15] was 353%. For the same protein, the Activity (%) [16] was 392%, the Activity (%) [17] was 162% and the Activity (%) [18] was 397%. For the same protein, the Activity (%) [19] was 216%, the Activity (%) [20] was 310% and the Activity (%) [21] was 439%. For the same protein, the Activity (%) [22] was 659%, the Activity (%) [23] was 275% and the Activity (%) [24] was 736%. The Activity (%) [25] was 491%, the Activity (%) [26] was 419% and the Activity (%) [27] was 191%. The Activity (%) [28] was 469%, the Activity (%) [29] was 431% and the Activity (%) [30] was 209%. For the same protein, the Activity (%) [31] was 398%, the Activity (%) [32] was 442% and the Activity (%) [33] was 475%. For the same protein, the Activity (%) [34] was 125%, the Activity (%) [35] was 467% and the Activity (%) [36] was 502%. The Activity (%) [37] was 282%, the Activity (%) [38] was 141% and the Activity (%) [39] was 890%. The Activity (%) [40] was 808% and the Activity (%) [41] was 1100% and 942%.
